From the DeepSol protein solubility set

Experiment: soluble on expression in E. coli; label from the status in PepcDB or PDB records

Row | Sequence | soluble on expression in E. coli
1 | MAHHHHHHMDVEHFIASLPPRTSVCGLHSVLSHASVHSLDSLGSTETPMLLTAQNFSFMSSGGDGDDNIGNAASTDSRATGAHGSGSNGSSHSGHHPTSPSPCGANASPFISKRLKYVIRSVALDHEECGGDSLSSRIASSYIGSSMPATNSQTRRRSERHVTFALEPEVLDARPRFSAYSRTVELLEQICLDKQSPWNALSLLQSALEERRGQLAQLRGQWDGALTGEAPTLTSSVTPKPCTITTSSGGGAVCHSRDKTTVPSPKSFPSATTSTLMTKGKSSRYSKVKPKACTTCSAM | not soluble
2 | MFDAVKKIVLSYRVSPNRDTLSAIKAIDDVLRKLASLPDDLSFVVDGNPIYRLAQHFFAQHGISFDVRQVIGLTNEDPVSEEFRPLKQIIERFNRTFKGNYRPTHGFGAEEGSVSFVTLFVAYFNFLRPHSALEGRVPVVIPELADLPHMPARWTKLIAMAQAFLQQEAA | not soluble
3 | MNLEKINELTAQDMAGVNATILEQLNSDVQLINQLGYYIISGGGKRIRPMIAVLAARAVGYQGNAHVTIAALIEFIHTATLLHDDVVDESDMRRGKATANAAFGNAASVLVGDFIYTRAFQMMTSLGSLKVLEVMSEAVNVIAEGEVLQLMNVNDPDITEENYMRVIYSKTARLFEAAAQCSGILAGCTPEQEKGLQDYGRYLGTAFQLIDDLLDYSADGEHLGKNVGDDLNEGKPTLPLLHAMRHGTPEQSAMIRTAIEQGNGRHLLEPVLEAMTTCGSLEWTRQRAEEEADKAISALQILPDTPWREALIGLAHIAVQRDR | not soluble
4 | MGSDKIHHHHHHMRMPEMMFLQGNEACALGAIKAGCRFFAGYPITPSTEIAEVMARELPKVGGVFVQMEDEIASAAAVVGASLAGVKSMTATSGPGFSLIQEVIGYAIMTETPCVFANVMRLGPSTGLPTKPAQGDIMQTRWGTHGDHAIIALYPSSVAEVYRYIITAFNLAEEYRTPVVFLMDAMLGHMRESFYPPKDEELFIIERLKDTSFGEEDLFVPFSESEYAEPTPFPMAEMGKTKFHVSGLVHDESGFPLSSPDAAEKLIRRLTNKIRLHADEIAFYEEYETEDAEILVVAYGIVARSAMKAVKIARRDRIKVGLFKPITIWPAPVSRFRKLAEKVNTIVIAEMNLGQYAKELISSIDRRSKVIRTINKVNGELIKPEEILDVITETQIEI | not soluble
5 | GSHMESGYAQNGDLEDAELDDYSFSCYSQLEVNGSQHSLTCAFEDPDVNTTNLEFEICGALVEVKCLNFRKLQEIYFIETKKFLLIGKSNICVKVGEKSLTCKKIDLTTIVKPEAPFDLSVVYREGANDFVVTFNTSHLQKKYVKVLMHDVAYRQEKDENKWTHVNLSSTKLTLLQRKLQPAAMYEIKVRSIPDHYFKGFWSEWSPSYYFRTPEINNSSGEMD | soluble
6 | SILATPILIPENQRPPFPRSVGKVIRSEGTEGAKFRLSGKGVDQDPKGIFRINEISGDVSVTRPLDREAIANYQLEVEVTDLSGKIIDGPVRLDISVIDQNDNRPMFKEGPYVGHVMEGSPTGTTVMRMTAFDADDPSTDNALLRYNILKQTPTKPSPNMFYIDPEKGDIVTVVSPVLLDRETMETPKYELVIEAKDMGGHDVGLTGTATATILIDD | soluble
7 | RHLVVPLNRLRDRADALRADELESTPLAAPLAARRDELGELAQALEHMAERLRLSLAQQRLLLRTLSHELRTPLARLRIAHDSELPPEQLRQRLDREIGDMQRLLEDTLDLAWMDTERPQLPTEPVLALSVWEALRDDACFESGWDPARLPCRLGVDCRVEVHLDSLAQAMENLLRNAIRHSPEDGTVSLDGEREGDFWHLRLQDQGPGVAEDQLERIFLPYQRLDDSAGEGFGLGLAIARRAIELQGGRLWASNGKPGLC | not soluble
8 | MSLTEPRIVATYHIASDAERIEQRALALAIEQSVECPLEAIGDPAIVANIVGRVEDVAELQPGRYAVRIGLAAATAPAEPGQLLNMLFGNSSIQPDIALADVELPAHYLTAFGGPRVGLAGIRTLTGAQSRALTASALKPQGLSPAALASIAHQLALGGVDLIKDDHGLADQAFSPFAERAAAVGKAVREANAARGGRTLYAPNISGTLDDMRRQLGVIRDEGIGAVLVAPMIVGVSNFHAIVKEAAGLVVVAHPAMAGAAKIAAPLLLGRLFRLFGADATVFPNYGGRFAYSTASCLALAQAARDPFGKLNACIPTPAGGIMLQRVNELLRFYGQDVMLLIGGSLLASRERLTEQASRFVNKVADYGQREGHHHHHH | soluble
9 | FDVERKAAPAIAESDLRVASFNVLNYFTSVADSGNNNPTGQNRGATNHDEFLIQQAKIVSAMNKMDADIIGLMEVENNGFGDGSAVQNLVDALNAEIDDADDHYTYVEIADKDKYQEEYFGSDAIMVAILYRAKVVTPKEAAKVIFTPEQHIAENTITRKDGAESNPAYDKYQRHSLLQTFTVQESGEDLSIVVNHFKSKGSECIEEWIAGVEDSEPADLQGNCNNFRVSAAHAVGEALKDVKGDVLLMGDLNAYGMEDPLLTLTDYSKEKYGRDIYTAGYTTINGGELQVEQTQIKQGYGLNNLNTLLHGTDTFSYTYSGELGNLDHALASNSLAQKVVAIEDWHINSLESNLFEYGSKYTGDMPKYKDAFSASDHDPVIIAIDLPDTDIDLP | not soluble
10 | MSLAIQNPYTAYQQNSVNTATPGELTLMLYNGCLKFIRLAAQAIENDDMERKNENLIKAQNIIQELNFTLNRNIELSASMGAMYDYMYRRLVQANIKNDTGMLAEVEGYVTDFRDAWKQAIQSERKDRHGSGGIAEGGSHHHHHH | soluble
11 | MSIQYEAPLADSYGVADSFPKDFGYGEEEGDIEDSPSPSDSKPRILLMGLRRSGKSSIQKVVFHKMSPNETLFLESTNKIYKDDISSSSFVNFQIWDFPGQVDFFDPTFDYELIFRGTGALIFVIDAQDDYVEALSRLHLTVSRAYRVNPEINFEVFIHKVDGLSDDHKIETQRDIHQRANDDLADASLEKLHLSFYLTSIYDHSIFEAFSKVVQKLIPQLPTLENLLNIFISNSGIEKAFLFDVVSKIYIATDSSPVDMQSYELCCDMIDVVIDVSCIYGLKEDGSGSAYDKESMAIIKLNNTTVLYLKEVTKFLALVCILRGESFERKGLIDYNFHCFRKAIHEVFEVGVSTSRTSNQPVGTPLMKTVALNGTPRSTV | soluble
12 | GPGSMFYKIVLQRTVNVKPADLCNTLNRSLLTFLREAVEGKPLPSPDSIASIALDYVTASKSSAVVIAVLDILNAETLQGKVLDDGSVSFRLTYEAMVLKLHRGEVLDLLVSDVDETGFWASVYGVNKLFVNRNQMGEDMKTGKSEWSFEAETAAWVSNDDRRSIKKDTMVRLRVIAETPQSERGMAVGTIGAPFLGPRVGSY | not soluble
13 | MLDTLLINIGQLLTMDQEDGLLRREAMNTLPVIENGVVGIENGVITFVGTAEEAKGLQAKEVIDSGGKMVSPGLVDPHTHLVFGGSRENEIALKLQGVPYLEILEQGGGILSTVNATKQASKEELVQKAKFHLDRMLSFGVTTVEAKSGYGLDDETEWKQLEATAQLQKEHPIDLVSTFLGAHAVPKEYKGRSKEFLQWMLDLLPEMKEKQLVEFVDIFCETGVFSVEESKEFLLKAKELGFDVKIHADEIDPLGGAEAAAEIGAASADHLVGASDKGIEMLANSNTVATLLPGTTFYLNKESFARGRKMIDEGVAVALATDFNPGSCPTENIQLIMSIAMLKLKMTPEEVWNAVTVNSSYAINRGDVAGKIRVGRKADLVLWDAYNYAYVPYHYGVSHVNTVWKNGNIAYTRGEQSWSTATI | not soluble
14 | MGSDKIHHHHHHMDPTTMPAPAPINYSQTWTFFEGEWHDGNVPIMGPRTHAAWLGSMVFDGARAFEGVTPDLDQHLARINWSATNFKLNALVDKATWLGLVQDGLKRFAGNAELYIRPMYWAQNGVGGGVLFDPDTTNWCLCIYEAPMPKPTGLSITLSPFRRPTAECAPVEAKAGCLYPNNSRAMMEAKSRGFDNCLLRDMLGHIAELGNSNIFMAKDGVVYTPAANGTFLSGITRQRVIELLRGDGITVLETSLSYRDFETADEIFASGNFAKVQPIIRIDDRSLQPGPFYAKARKLYWEFAHG | not soluble
15 | QDPDGLLGDKKDVGITCALIPADHDGVEIGERHDPLGSAFMNGPTRGEDVFIPMDWLIGGSDYAGKGWRMLVECLSAGRGISLPALGTAIGHLTTRTTGAYAYVRKQFGMSIGKFEGVAEAMGRIGGLTYLLEATRTLTTTSLDMKEKPGIVTAIAKYHMTEIARTILNDSFDIHAGRAIQDGPMNYLAKHYLGIPVAITVEGANILTRNLMIFGQGATRCHPYVLKEMEAAANPDSEQGAKEFDSLLFKH | not soluble
16 | MTKLAVVGATGLVGTKMLETLNRKNIPFDELVLFSSARSAGQEVEFQEKTYTVQELTDARASEHFDYVLMSAGGGTSEHFAPLFEKAGAIVIDNSSQWRMAEDIDLIVPEVNEPTFTRGIIANPNCSTIQSVVPLKVLQDAYGLKRVAYTTYQAVSGSGMKGKKDLAEGVNGKAPEAYPHPIYNNVLPHIDVFLENGYTKEEQKMIDETRKILNAPDLKVTATCARVPVQDSHSVEIDVTLDKETTAEDIKALFDQDDRVVLVDNPENNEYPMAINSTNKDEVFVGRIRRDDSLENTFHVWCTSDNLLKGAALNAVQVLEQVMRLKGAN | soluble
17 | MGSDKIHHHHHHMKVLQYFENPGLISRSGIGHAQRLQQEELSYTDIVLDTSPFSKDYDLIDVNTYGPKSLAMVAKARLQNRKVVYHAHSTYEDFRNSFIGSNFLSKPFKKHLIKAYRQADLIITPTPYAKSLLRSYGLKQPIVPISNGVRVSSYRRNKSKIIKFRQFLNLKENDKRKIIISVGLYFQRKGIMDFVELARRNPEHLFVWFGYTDLRIIPKKIRETVKKDHPDNCVFAGYITGDVLQGAYSGADLFLYPSYEETEGIVVLEALASSQKVLVRDIPVYNDWLHDGFDCYKASNLDEFDKRLNEILAGKVKNVSKAGHEVALKRDVSLIGPQLKKAYEEALSLPSQESR | not soluble
18 | GPGSMYNSGGEVRSYAQRVFALYSRENVLSVSRFCLAWYVLWGKQPNPTVTELLFGRCDASGDGNVTKYPKEICEEGYAAPLRGSSSDYCKRPSGVNTVAVGASVPPNATLQRRISEEEFVRFAVAYYDSMGNDASDLSDVPGAANPFHAVPRVAHWAHFIALAGDKGYVTLQDILETENVAWLRPPEYEDGDVNPKGVRGGGRAALLSHAFAIADSNKDGKVVFGDVENYMRPLSS | not soluble
19 | GMNSDIIVADFWKNNEEILTDFDKDSFCESWTENEMWSIEFKVAQTPKNAHCYSFLDYESSVYFRGQEFVVKQLSHDAVGKTLSKDIRAPHIYYTCQDGRQDDAITGSFTLEQCLTHIFKTDNRGFSWEIIDPSNILEKVQQENFGNNNYLTLIDQLLDDYGVVVIPDNRHLVFKPREIYGAKTENFIRYKYNTDEASFDIDTLSLKTKIKGYGKVDSNGNNYFSPITYTSPEVEKWGIRWQEPVSDERYTVAGNMQRRLKLELQDYPATTGSVILKNDYECEKGDYVLFIYEPLGIDYDVQIVAYKKYPFTIKAPEITLSNNKKSIVSIMAQLAKVLKGAK | soluble
20 | MRKPKITVIGGGTGIPVILKSLRLEDVEITAVVTVADDGGSSGELRSVMQLTPPGDLRNVLVALSDMPKFYEQIFQYRFAEGDGDFAGHPLGNLIIAGVAEMQGSTYNAMQSLTQFFHTTGKIYPSSEHPLTLHAVFKDGHEVVGESQIADYKGMIDHVYVTNTYNEETPTASRKVVDAILESDMIVLGPGSLFTSILPNLVIPEIKQALLETRAEVAYVCNIMTQRGETEHFTDADHVEVLKRHLGQDAIDTVLVNIEKVPESYMENNHFDEYLVQVEHDFSGLRKHARRVISSNFLKLEKGGAFHHGDFVVEELMNLVGTHLLEHHHHHH | not soluble
